Laboratory results published in the supplement of paper PMC5949888.

Tested on: Saccharomyces cerevisiae PS128 hsf1 delta, HSF1(1-493) fusion
Assay: growth estimate (transactivation domain function in HSF1 fusion, heat-shock survival) (a.u. (slope of normalised read count over time)); higher = stronger growth at 37°C, i.e. more transactivation activity
Settings: library: design library
Outline: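 Designed transactivation-domain oligos were fused to truncated yeast HSF1 (amino acids 1–493) and expressed in an hsf1-deleted yeast strain. Cells were replica-plated onto –trp 5-FOA plates and incubated at 30°C or 37°C for 0, 2, 4, 6 and 8 days. Inserts were PCR-amplified and Illumina MiSeq-sequenced as six barcoded replicates from one experiment. Growth estimate is the slope of a robust linear fit over time of read counts normalised to sample totals and starting count.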

Sequence | growth estimate
PEFPGIELQELQELQALLQP | -0.215
EFNDRLDLDFILSN | -0.246
EFGDLLDLDFILSN | 0.032
EFNDLPDLDFILSN | -0.195
LFDYDFLFGRDFA | 3.41
DRDLDMLGDFDLDMLG | 0.301
DFDLDMLADFDLDMLG | 0.343
QQNGKIAQLWDFN | -0.237
DLDESWDYIPETTE | < -0.25
QQNGEPAQLWDFN | -0.235
LFRYDFLFGNDFA | -0.0535
PFPRTQDDFLKWWRSEEAQ | -0.248
MLSPHGFSVDTSALLDLFSP | 0.158
DELRWIIELLEKDG | 0.0232
EADDEFSLWDSML | 0.306
EDDDERSLWDSML | < -0.25
EFNDLADLDFILSN | 0.121
EDDDAFSLWDSML | 0.237
DFDLDMLGDFDLDMKG | 3.28
EDLYSILWSAVY | -0.107
LFDYDFLPGNDFA | -0.232
DLDESGDYIFETTE | -0.129
EDLYSILWSDVA | 0.126
QQNGEIAQRWDFN | < -0.25

Sequence | growth estimate
DFDLDMLGDFDLDPLG | 9.65
DLDESWRYIFETTE | 0.0438
MLSSHGFSVDTSALLDLASP | -0.145
PEFPGIELQELQELQALPQQ | < -0.25
DLDESWDYIFEGTE | 1.27
PEFPGIELQRLQELQALLQQ | -0.107
VADDIWEELLSEDL | 0.661
EFNDLLDLDFILPN | 10.7
VADDIWEELLSEGL | 10.4
EPNDLLDLDFILSN | 0.229
DLDRSWDYIFETTE | -0.214
DLDESWGYIFETTE | 0.0335
DLRESWDYIFETTE | -0.213
DFDLDMLGDFDLDMLA | 1.83
DEASWIIELLEKDG | -0.123
PEFPGIKLQELQELQALLQQ | -0.02
VADRIWEELLSEDL | -0.176
RDLYSILWSDVY | -0.248
VADDIWEELLGEDL | 2.11
DELSWIAELLEKDG | 0.851
DFDLGMLGDFDLDMLG | 12.4
EFNDLLDLDFKLSN | -0.099
PEFPGIELQELQELQGLLQQ | < -0.25
EFNDKLDLDFILSN | < -0.25

Sequence | growth estimate
KDDDEFSLWDSML | 0.429
DGDLDMLGDFDLDMLG | 0.418
PFPDTQADFLKWWRSEEAQ | < -0.25
MLSSHGFSVPTSALLDLFSP | -0.204
PFPDTQDAFLKWWRSEEAQ | 0.5
VADDIWEELLSEDR | 0.315
DLDESWDYIFRTTE | 0.833
EDRYSILWSDVY | -0.176
VADKIWEELLSEDL | -0.0109
GFDYDFLFGNDFA | 8.74
EFNDLLDLAFILSN | -0.217
PFPDRQDDFLKWWRSEEAQ | -0.241
PEFPGIEGQELQELQALLQQ | < -0.25
MLSSHGFSVDTSALLDLFAP | -0.0921
DLDESWDYIFERTE | 0.415
MLSSHGFSVDTSALLKLFSP | -0.216
DFDLDKLGDFDLDMLG | 1.4
EDDDEFALWDSML | 0.128
EDLYSILWSDAY | 0.452
EFNDLLDLDRILSN | 0.151
DFDKDMLGDFDLDMLG | 0.964
DELSWIPELLEKDG | -0.091
DELSWPIELLEKDG | 0.046
MLSSHGFSVDTSALADLFSP | -0.191

Sequence | growth estimate
VADDIWEELLREDL | 10.8
EDLYSALWSDVY | 0.125
DLDEAWDYIFETTE | 1.45
LFDYDFLFGNDRA | 0.389
PFPDTQDDFLKWWRSEEAP | 0.0281
MLSSHGFSVDTSALLALFSP | -0.21
PFPDTQDDFLPWWRSEEAQ | -0.145
DFRLDMLGDFDLDMLG | 10.1
PEFPGIELQELQELQRLLQQ | -0.177
MLSSHGFSVDTSALLRLFSP | -0.193
DFDLDMLGDFDADMLG | 21.1
PEFPGIELQELQELQKLLQQ | < -0.25
TMDDAYNYLFDD | -0.228
VADDIWERLLSEDL | 2.04
PEFPGIRLQELQELQALLQQ | -0.249
DELSWIIGLLEKDG | -0.0196
GMDDVYNYLFDD | 0.253
QQNGEKAQLWDFN | -0.22
DLDESWDYAFETTE | < -0.25
MLSSHGFAVDTSALLDLFSP | -0.142
LFDYDFLFGGDFA | 5.98
DELGWIIELLEKDG | -0.244
DELSWIGELLEKDG | -0.125
LFDYDFLFGKDFA | 2.49

Sequence | growth estimate
PFPDTQDDFLKWWRSEEAA | -0.236
DKLSWIIELLEKDG | < -0.25
PGFPGIELQELQELQALLQQ | -0.0439
MLSSHGFPVDTSALLDLFSP | -0.119
LFDYDFLFKNDFA | 2.06
EFNDLLDLDFILSA | -0.12
LFDYDFPFGNDFA | 0.577
MLSSHGFSVDTSALLGLFSP | -0.207
DELSWIIELLEKDR | 0.276
ERNDLLDLDFILSN | -0.237
EFNDLLDLDFALSN | 3.84
LFDYDFLFGNDKA | 0.271
PEFKGIELQELQELQALLQQ | < -0.25
QQNGEIAALWDFN | -0.237
EDDDEFSLWDSAL | < -0.25
PEFPGIELQELQELQALLAQ | < -0.25
PFPPTQDDFLKWWRSEEAQ | -0.215
TMPDVYNYLFDD | -0.0795
DLDESWDYKFETTE | -0.178
QQNGEIAQLWDPN | -0.246
TMDDVRNYLFDD | < -0.25
DFDGDMLGDFDLDMLG | 1.92
LFDYAFLFGNDFA | 2.15
EFNDLLDLDFILSP | -0.228

Sequence | growth estimate
PFPDTQDDFLKWWRSEPAQ | -0.225
EDDDEFSLWDSML | 1.95
DLDEGWDYIFETTE | 0.787
DFDRDMLGDFDLDMLG | 1.31
EDDDEFSLWDPML | 3.13
DELSWIIALLEKDG | -0.104
DFDLDMLGDFDLDMRG | 6.95
DFDLDMLGDFKLDMLG | 0.503
PEFPGIELAELQELQALLQQ | -0.181
PFPDTGDDFLKWWRSEEAQ | -0.0916
DFDLDPLGDFDLDMLG | 2.12
MLASHGFSVDTSALLDLFSP | -0.0319
PEFPGIELQELKELQALLQQ | < -0.25
MLSSHGFSVDTSAPLDLFSP | -0.15
DPLSWIIELLEKDG | -0.102
PEFPGIEPQELQELQALLQQ | 0.114
DELSWIIELPEKDG | -0.237
EFNDLLDLDFIASN | 0.58
VARDIWEELLSEDL | 2.59
QQNGEIKQLWDFN | < -0.25
VADDIWRELLSEDL | 7.56
